Where a chain is given by its changes, count along the chain named.
T1: human Trop2 on cells (human, UniProt P09758 27-323)
T1 construct: whole, on cells; also called hTrop2; 293T-human Trop2 cells
T1 sequence (looked up): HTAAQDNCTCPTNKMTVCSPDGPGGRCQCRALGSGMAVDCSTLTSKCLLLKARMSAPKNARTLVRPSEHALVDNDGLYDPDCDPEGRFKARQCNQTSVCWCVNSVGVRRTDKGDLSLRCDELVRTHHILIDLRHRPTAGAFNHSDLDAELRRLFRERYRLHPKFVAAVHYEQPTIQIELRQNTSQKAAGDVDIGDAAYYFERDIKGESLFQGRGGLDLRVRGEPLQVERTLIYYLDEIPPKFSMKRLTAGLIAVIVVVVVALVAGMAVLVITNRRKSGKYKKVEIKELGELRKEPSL

T2: monkey Trop2 on CHO-K1 cells (monkey, UniProt A0A2K5UE71 27-323)
T2 construct: also called CHO-K1/monkey Trop2
T2 sequence: T1 sequence (looked up) with M36V, K46E, S67N, I204V, M266V, T272S

T3: monkey Trop2 protein (Sino Biological, #90893-C08H) (monkey, UniProt A0A2K5UE71 27-274)
T3 construct: bought protein; also called monkey Trop2 protein antigen (His tag)
T3 sequence: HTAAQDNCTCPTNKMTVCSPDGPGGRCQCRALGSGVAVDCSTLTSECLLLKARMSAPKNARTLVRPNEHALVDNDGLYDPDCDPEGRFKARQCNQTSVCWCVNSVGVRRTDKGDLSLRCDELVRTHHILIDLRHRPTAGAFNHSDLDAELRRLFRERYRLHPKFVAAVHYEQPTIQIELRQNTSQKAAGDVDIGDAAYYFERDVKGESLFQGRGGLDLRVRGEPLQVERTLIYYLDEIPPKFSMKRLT

T4: human TROP2 protein (Sino Biological, #10428-H08H) (human, UniProt P09758 27-274)
T4 construct: bought protein; also called human Trop2 protein antigen (His tag); not shown: His tag
T4 sequence (looked up): T3 sequence with V36M, E46K, N67S, V204I

B1: comparative example 2 antibody Tab (hRS7) (antibody, human IgG1, kappa, V domains shown)
VH: QVQLQQSGSELKKPGASVKVSCKASGYTFTNYGMNWVKQAPGQGLKWMGWINTYTGEPTYTDDFKGRFAFSLDTSVSTAYLQISSLKADDTAVYFCARGGFGSSYWYFDVWGQGSLVTVSS
VL: DIQLTQSPSSLSASVGDRVSITCKASQDVSIAVAWYQQKPGKAPKLLIYSASYRYTGVPDRFSGSGSGTDFTLTISSLQPEDFAVYYCQQHYITPLTFGAGTKVEIKR
notes: prepared on the basis of sacituzumab govitecan (ChemPartner, #T07-001); naked antibody
B2: PR001165 (antibody, human IgG1, kappa, V domains shown)
VH: QVQLVESGGGVVQPGRSLRLSCEASGFTFSHYGMHWVRQAPGKGLEWVAVIWYDGIKTYYVESVKGRFTISRDNSKNTLNLQMNRLRAEDTAVYYCARDGGFGESNYYGLDVWGQGTTVTVSS
VL: DIQLTQSPSFLSASVGDRVTITCRASQGISSYLGWYQQKPGKAPKLLIYIASTLQSGVPSRFSGSGSGTEFTLTISSLQPEDFATYYCQQLNSYPYTFGQGTKLEIKR
notes: fully human IgG1/kappa; also called antibody No. (26)
B3: PR001166 (antibody, human IgG1, kappa, V domains shown)
VH: QVQLQESGPGLVKPSETLSLTCAVSGYSISSGYFWAWIRQPPGKGLEWIGSIYHSGRTHYNPSLKSRVIISLDTSKNQFSLKLRSVTAADSAVYYCAREGYASGSYYWGQGTLVTVSS
VL: EIVMTQSPATLSVSPGERATLSCRSSQSVNNYLAWFQQKPGQAPRLLIYDSSTRATGIPARFSGSGSGTEFTLTISSLQSEDFAFYFCQQYENWPLTFGGGTKVEIKR
notes: fully human IgG1/kappa; also called antibody No. (27)
B4: PR001142 (antibody, human IgG1, kappa, V domains shown)
VH: QVQLQESGPGLVKPSGTLSLTCAVSGDSISSNNWWSWVRQPPGKGLEWIGEIYPGGNPNYNPSLKSRVTISVDKSKNQFSLKLNSVTAADTAVYYCARGSGVISYFDYWGQGTLVTVSS
VL: DIQMTQSPSTLSASVGDRVTITCRASQSIGHWLAWYQQKPGKAPKLLIYKASSLESGVPSRFRGSGSGTEFTLTISSLQPDDFATYYCQQYSSYSPITFGQGSRLEIKR
notes: fully human IgG1/kappa; also called antibody No. (9)

What follows are binders tested against T1, human Trop2 on cells (assay: flow cytometry on BxPC-3 tumor cells (second panel of the table)).
Protocol: BxPC-3 tumor cells (the Cell Bank of the Chinese Academy of Sciences, #TCHu 12) were digested with 3 mL of TrypLE, and the digestion was stopped with 7 mL of the corresponding medium. […] The cell solution was centrifuged, and the cells were washed once with PBS+[…] buffer. […] The cells were washed once with PBS+0.50% BSA. The cells were incubated at 4° C. for 1 h in the dark with 100 μL of Alexa Fluor 488 goat anti-human IgG (Life technologies, #A-11013) diluted at 1:1000, and washed twice with PBS+0.50% BSA. The cells were resuspended in 200 μL of PBS+0.50% BSA. The suspension was centrifuged at 4° C. for 5 min at 2000 rpm and tested using a FACS verse flow cytometer or NovoCyte flow cytometer (ACEA Biosciences). All procedures were performed on ice.

| Binder | EC50 [nM] |
| --- | --- |
| B1 | 2.67 |
| B2 | 1.71 |

Each binder was assayed against T2, monkey Trop2 on CHO-K1 cells (assay: flow cytometry on CHO-K1/monkey Trop2 cells (second run)).
Protocol: CHO-K1/monkey Trop2 cells (Chempartner, Shanghai, China) and CHO-K1 blast cells were each digested with 3 mL of TrypLE, and the digestion was stopped with 7 mL of the corresponding medium. […] The cell solution was centrifuged, and the cells were washed once with PBS+0.5% BSA. […] The cells were washed once with PBS+0.5% BSA. The cells were incubated at 4° C. for 1 h in the dark with 100 μL of Alexa Fluor 488 goat anti-human IgG (Life technologies, #A-11013) diluted at 1:1000, and washed twice with PBS+0.5% BSA. The cells were resuspended in 200 μL of PBS+0.5% BSA. The suspension was centrifuged at 4° C. for 5 min at 2000 rpm and tested using a FACS verse flow cytometer or NovoCyte flow cytometer (ACEA Biosciences). All procedures were performed on ice.

| Binder | EC50 [nM] |
| --- | --- |
| B1 | 1.3 |
| B2 | 1.8 |

What follows are binders tested against T3, monkey Trop2 protein (Sino Biological, …) (assay: SPR, Biacore T200, antigen immobilised on CM5 chip).
Protocol: (§1) HBS-EP+ (10 mM HEPES, 150 mM NaCl, 3 mM EDTA, and 0.05% P20, pH 7.4, GE Healthcare, BR-1001-88) was used as a running buffer throughout the test. […] Data were analyzed using Biacore T200 (GE Healthcare, T200 model, #BIAC-B20-03) Evaluation 3.1 software.

| Binder | Kd [nM] | koff [s⁻¹] | kon [M⁻¹ s⁻¹] |
| --- | --- | --- | --- |
| B1 | 0.619 | – | – |
| B3 | 0.0856 | 0.000137 | 1.59e+06 |
| B4 | 0.374 | 0.000179 | 479000 |
| B2 | 0.491 | 0.000125 | 255000 |

These binders were tested against T4, human TROP2 protein (Sino Biological, …) (assay: SPR, Biacore T200, antigen immobilised on CM5 chip).
Protocol: as §1

| Binder | Kd [nM] | koff [s⁻¹] | kon [M⁻¹ s⁻¹] |
| --- | --- | --- | --- |
| B1 | 0.601 | – | – |
| B3 | 0.0279 | 5.78e-05 | 2.07e+06 |
| B4 | 0.53 | 0.000252 | 475000 |
| B2 | 0.495 | 0.000152 | 307000 |

These binders were tested against T1, human Trop2 on cells (assay: cell-based or functional assay).

| Binder | ADCP (Donor A1925144#) EC50(nM), BxPC-3 + macrophages [nM] | ADCP (Donor A1925144#) Maximum phagocytosis % [%] | ADCP (Donor A1925144#) Minimum phagocytosis % [%] | ADCP (Donor A19143143#) EC50(nM), BxPC-3 + macrophages [nM] | ADCP (Donor A19143143#) Maximum phagocytosis % [%] | ADCP (Donor A19143143#) Minimum phagocytosis % [%] |
| --- | --- | --- | --- | --- | --- | --- |
| B1 | 0.125 | 14.8 | 1.72 | 0.208 | 44.8 | 1.04 |
| B3 | 0.0311 | 9.33 | 2.05 | 0.161 | 40.2 | 2.04 |
| B4 | 0.0362 | 12 | 0.861 | 0.199 | 36.4 | 1.75 |
| B2 | 0.0683 | 12.5 | 2.25 | 0.178 | 42.7 | 1.37 |

Target: T1, human Trop2 on cells
Test: cell-based or functional assay
Remark: another data set of the same source

| Binder | ADCC (donor 1152#) EC50(nM), BxPC-3 + PBMC, LDH release [nM] | ADCC (donor 1152#) Maximum cell killing % [%] | ADCC (donor 1152#) Minimum cell killing % [%] | ADCC (donor 2153#) EC50(nM), BxPC-3 + PBMC, LDH release [nM] | ADCC (donor 2153#) Maximum cell killing % [%] | ADCC (donor 2153#) Minimum cell killing % [%] |
| --- | --- | --- | --- | --- | --- | --- |
| B1 | 0.0391 | 42.1 | 4.32 | 0.08 | 62.6 | 10.2 |
| B3 | 0.02 | 36.5 | 3.25 | 0.0347 | 69.1 | 11.9 |
| B4 | 0.0279 | 41.6 | 4.47 | 0.0547 | 58.8 | 9.28 |
| B2 | 0.0324 | 39 | 5.79 | 0.0616 | 70.8 | 14 |

Reference: patent US20240067748A1 (NONA BIOSCIENCES SUZHOU, published 2024)
